Assay results as given in patent US9549967B2, “Regulation of sodium channels by PLUNC proteins” (The University of North Carolina at Chapel Hill, priority 2009, dated 2017).

Legend:
CFTR = molecular target: T1, CFTR (Homo sapiens, UniProt P13569); experiment: CFTR activity in Xenopus oocytes co-expressing CFTR and β2 adrenergic receptor; assay type: cell-based; conditions: after 10 μM isoproterenol
T1 construct: expressed in transfected cells; host or cells: Xenopus laevis oocytes
Procedure: (§1) Oocyte studies. Xenopus laevis oocytes were harvested and injected as described (Donaldson, et al., J. Biol. Chem. 277:8338 (2002)). Defolliculated healthy stage V-VI oocytes were injected with 0.3 ng of cRNA of each ENaC subunit. Injected oocytes were kept in modified Barth's saline (in mM: 88 NaCl, 1 KCl, 2.4 NaHCO3, 0.3 Ca(NO3)2, 0.41 CaCl2, 0.82 MgSO4, and 15 HEPES, adjusted to pH 7.35 with Tris). Oocytes were studied 24 hr after injection using the two electrode voltage clamp technique as previously described (Donaldson, et al., J. Biol. Chem. 277:8338 (2002)). Oocytes were clamped at a holding potential of […]. The change in amiloride-sensitive whole cell current as an indicator of ENaC activity was determined by subtracting the corresponding current value measured in the presence of 10 μM amiloride from that measured before the application of amiloride.
In both cases, we co-expressed CFTR with the β2 adrenergic receptor (β2AR) which can be stimulated with isoproterenol to raise cAMP and stimulate CFTR (Uezono et al., Receptors Channels 1:233 (1993)).

[1] = molecular target: T2, ENaC containing the βS518C mutant (Rattus norvegicus, UniProt P37089+P37090+P37091, S518C); experiment: Oocyte current of ENaC containing the βS518C mutant with MTSET; assay type: cell-based; conditions: SPLUNC1 coexpression, n=6
T2 construct: expressed in transfected cells; host or cells: Xenopus oocytes
T2 sequence (P37089 1-698): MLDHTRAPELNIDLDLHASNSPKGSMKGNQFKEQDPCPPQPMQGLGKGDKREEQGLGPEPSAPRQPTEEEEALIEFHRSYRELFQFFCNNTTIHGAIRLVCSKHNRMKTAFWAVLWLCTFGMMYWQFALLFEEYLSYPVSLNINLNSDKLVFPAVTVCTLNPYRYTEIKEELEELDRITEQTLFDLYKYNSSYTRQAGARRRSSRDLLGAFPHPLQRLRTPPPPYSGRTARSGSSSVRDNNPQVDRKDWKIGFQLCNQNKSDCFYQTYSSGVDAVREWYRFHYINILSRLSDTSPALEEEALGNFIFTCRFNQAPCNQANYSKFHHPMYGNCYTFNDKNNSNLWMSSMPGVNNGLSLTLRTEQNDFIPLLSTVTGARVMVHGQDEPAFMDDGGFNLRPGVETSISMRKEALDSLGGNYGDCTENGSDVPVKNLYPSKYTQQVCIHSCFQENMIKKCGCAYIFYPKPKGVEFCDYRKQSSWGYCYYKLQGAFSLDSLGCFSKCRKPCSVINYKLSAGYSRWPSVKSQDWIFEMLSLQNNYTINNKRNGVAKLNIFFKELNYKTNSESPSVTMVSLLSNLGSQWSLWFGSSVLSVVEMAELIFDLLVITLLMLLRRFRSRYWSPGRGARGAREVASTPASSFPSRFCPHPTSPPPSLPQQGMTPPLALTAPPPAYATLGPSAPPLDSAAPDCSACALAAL
T2 sequence (P37090 1-638 S518C): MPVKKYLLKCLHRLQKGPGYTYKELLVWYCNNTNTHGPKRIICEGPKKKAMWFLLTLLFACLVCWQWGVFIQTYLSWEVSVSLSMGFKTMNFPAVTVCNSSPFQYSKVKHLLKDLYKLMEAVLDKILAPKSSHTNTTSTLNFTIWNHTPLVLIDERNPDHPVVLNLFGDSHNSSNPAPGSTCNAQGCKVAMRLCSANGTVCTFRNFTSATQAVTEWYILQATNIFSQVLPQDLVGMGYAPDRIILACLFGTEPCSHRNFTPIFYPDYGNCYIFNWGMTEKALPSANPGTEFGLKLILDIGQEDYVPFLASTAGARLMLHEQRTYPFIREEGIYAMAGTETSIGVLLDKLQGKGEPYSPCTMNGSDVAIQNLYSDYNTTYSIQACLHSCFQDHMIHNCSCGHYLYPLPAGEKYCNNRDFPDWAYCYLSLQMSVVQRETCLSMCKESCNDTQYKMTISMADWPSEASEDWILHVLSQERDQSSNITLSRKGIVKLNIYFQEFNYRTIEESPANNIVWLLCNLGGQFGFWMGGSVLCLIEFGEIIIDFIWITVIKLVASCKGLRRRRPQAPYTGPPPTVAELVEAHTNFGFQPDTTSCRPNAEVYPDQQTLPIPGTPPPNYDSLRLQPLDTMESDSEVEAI
T2 sequence (P37091 1-650): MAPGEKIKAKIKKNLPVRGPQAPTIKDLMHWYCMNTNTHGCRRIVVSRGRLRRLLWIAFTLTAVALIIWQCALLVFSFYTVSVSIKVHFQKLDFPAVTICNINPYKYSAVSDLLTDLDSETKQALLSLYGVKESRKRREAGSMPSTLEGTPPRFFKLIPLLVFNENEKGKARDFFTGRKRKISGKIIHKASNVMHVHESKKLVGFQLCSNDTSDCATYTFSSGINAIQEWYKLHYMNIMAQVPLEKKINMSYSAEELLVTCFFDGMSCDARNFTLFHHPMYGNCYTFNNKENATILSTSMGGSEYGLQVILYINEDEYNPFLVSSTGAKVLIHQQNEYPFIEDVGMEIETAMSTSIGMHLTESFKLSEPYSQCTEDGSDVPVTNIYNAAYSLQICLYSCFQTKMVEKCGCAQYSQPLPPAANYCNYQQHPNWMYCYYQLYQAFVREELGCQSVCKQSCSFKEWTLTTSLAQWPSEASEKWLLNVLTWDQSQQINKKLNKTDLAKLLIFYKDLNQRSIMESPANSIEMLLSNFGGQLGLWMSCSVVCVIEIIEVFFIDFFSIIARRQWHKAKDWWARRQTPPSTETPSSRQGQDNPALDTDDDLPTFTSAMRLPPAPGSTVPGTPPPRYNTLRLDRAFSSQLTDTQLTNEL
Procedure: as §1
The effect of SPLUNC1 on the number of ENaC channels in the plasma membrane was tested by expressing SPLUNC1 and αENaC in Xenopus oocytes. After surface biotinylation of αENaC, total lysate was prepared and lysate from 3-4 eggs was separated on a 10% gel.

T1 sequence (P13569 whole entry, species assumed): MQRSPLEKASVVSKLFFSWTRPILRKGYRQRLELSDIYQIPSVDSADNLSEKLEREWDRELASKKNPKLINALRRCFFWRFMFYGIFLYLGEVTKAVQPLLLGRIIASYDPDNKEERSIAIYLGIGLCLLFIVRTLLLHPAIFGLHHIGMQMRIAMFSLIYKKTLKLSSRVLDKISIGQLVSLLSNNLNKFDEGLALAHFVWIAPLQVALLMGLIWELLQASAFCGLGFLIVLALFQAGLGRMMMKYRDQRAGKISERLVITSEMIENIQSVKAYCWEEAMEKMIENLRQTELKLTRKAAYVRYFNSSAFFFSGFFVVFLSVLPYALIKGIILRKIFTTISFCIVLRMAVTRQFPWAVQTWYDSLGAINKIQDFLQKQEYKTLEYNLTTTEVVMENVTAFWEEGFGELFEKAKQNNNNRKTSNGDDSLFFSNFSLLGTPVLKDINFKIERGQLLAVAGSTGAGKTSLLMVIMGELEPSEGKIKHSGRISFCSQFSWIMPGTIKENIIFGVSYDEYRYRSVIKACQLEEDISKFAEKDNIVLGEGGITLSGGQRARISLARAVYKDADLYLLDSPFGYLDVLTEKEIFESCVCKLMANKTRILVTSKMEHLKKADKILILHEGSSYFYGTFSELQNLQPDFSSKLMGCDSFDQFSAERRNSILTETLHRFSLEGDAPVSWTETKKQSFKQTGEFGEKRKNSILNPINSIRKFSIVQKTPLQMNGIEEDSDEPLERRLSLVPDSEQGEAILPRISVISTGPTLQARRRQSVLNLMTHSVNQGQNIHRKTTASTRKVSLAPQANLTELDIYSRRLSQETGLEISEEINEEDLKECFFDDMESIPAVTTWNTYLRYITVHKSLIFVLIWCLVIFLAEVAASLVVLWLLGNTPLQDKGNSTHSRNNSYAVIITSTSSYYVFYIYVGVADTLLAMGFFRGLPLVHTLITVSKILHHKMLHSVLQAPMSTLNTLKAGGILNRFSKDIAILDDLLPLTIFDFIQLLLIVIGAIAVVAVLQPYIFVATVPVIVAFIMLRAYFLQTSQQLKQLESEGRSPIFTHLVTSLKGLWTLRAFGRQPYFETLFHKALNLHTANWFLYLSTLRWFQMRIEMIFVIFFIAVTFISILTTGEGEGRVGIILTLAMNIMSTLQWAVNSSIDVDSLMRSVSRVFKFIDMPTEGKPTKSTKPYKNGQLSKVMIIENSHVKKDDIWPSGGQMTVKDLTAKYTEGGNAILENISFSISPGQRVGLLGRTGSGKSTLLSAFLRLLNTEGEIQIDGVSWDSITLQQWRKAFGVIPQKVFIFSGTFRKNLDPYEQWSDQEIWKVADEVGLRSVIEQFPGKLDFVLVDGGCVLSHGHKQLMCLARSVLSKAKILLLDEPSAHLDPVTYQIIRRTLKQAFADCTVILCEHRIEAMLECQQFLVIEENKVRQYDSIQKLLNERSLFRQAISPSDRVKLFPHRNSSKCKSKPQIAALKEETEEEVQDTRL

B1: SPLUNC1: human SPLUNC1, 256 amino acid secreted PLUNC protein (SEQ ID NO:1); rSPLUNC1 = V5/6His-tagged protein purified from HEK293 media (protein, listed as Homo sapiens)
chain: MFQTGGLIVFYGLLAQTMAQFGGLPVPLDQTLPLNVNPALPLSPTGLAGSLTNALSNGLLSGGLLGILENLPLLDILKPGGGTSGGLLGGLLGKVTSVIPGLNNIIDIKVTDPQLLELGLVQSPDGHRLYVTIPLGIKLQVNTPLVGASLLRLAVKLDITAEILAVRDKQERIHLVLGDCTHSPGSLQISLLDGLGPLPIQGLLDSLTGILNKVLPELVQGNVCPLVNEVLRGLDITLVHDIVNMLIHGLQFVIKV
modifications: V5/6His tag
notes: rSPLUNC1 = V5/6His-tagged protein purified from HEK293 media
effect on CFTR activity (CFTR; 5 ng/ml rSPLUNC1 exposure): no inhibitory effect | effect on CFTR activity (CFTR; injection of SPLUNC1 cRNA): no inhibitory effect | overall current with MTSET [1]: still reduced
